In experiment [1] the target is human recombinant adrenomedullin receptor (CRLR + RAMP3) (human).
Experiment [2] shares this target. This is another data set of the same source.

Turning to “human ADM 22-52 (from UniProt P35318) (peptide)”, the IC50 (read off the curve); cAMP, % inhibition, 5.63 nM hADM as agonist in experiment [1] turned out to be 200 nM. The IC50 (read off the curve); cAMP, % inhibition, 0.67 nM mADM as agonist in experiment [2] worked out at 2000 nM.

These data come from US20260167706A1, “ANTI-ADRENOMEDULLIN (ADM) ANTIBODY OR ANTI-ADM ANTIBODY FRAGMENT OR ANTI-ADM NON-IG SCAFFOLD FOR USE IN THERAPY OR PREVENTION OF SHOCK” (ADRENOMED AG, priority 2022, published 2026).
